Laboratory results published in patent US20220228157A1, “GENE EDITING IN DIVERSE BACTERIA” (priority 2019, published 2022).
Substitutions are numbered along the chain they refer to. Numbers in names are those of the source.

B1: L1SSB C7:EcSSB (protein)
chain: MINNVVLVGRITRDPELRYTPQNQAVATFSLAVNRQFKNANGEREADFINCVIWRQQAENLANWAKKGALIGVTGRIQTRNYENQQGQRVYVTEVVADSFQMLESRSARDGMGGGASAGSYSAPSQSTNNTPRPQTNNNSATPNFGRDADPFGSSPMEIMEIFDDDIPF
B2: L1SSB C8:EcSSB (protein)
chain: MINNVVLVGRITRDPELRYTPQNQAVATFSLAVNRQFKNANGEREADFINCVIWRQQAENLANWAKKGALIGVTGRIQTRNYENQQGQRVYVTEVVADSFQMLESRSARDGMGGGASAGSYSAPSQSTNNTPRPQTNNNSATPNFGRDADPFGSSPMEMEDFDDDIPF
B3: L1SSB C7:PaSSB (protein)
chain: B1 chain
B4: L1SSB C8:PaSSB (protein)
chain: B2 chain with D161S
B5: L1SSB C7:MsSSB (protein)
chain: B1 chain with F163A, D166E, I167P
B6: L1SSB C8:MsSSB (protein)
chain: B2 chain with D161G, F162A, D165E, I166P
B7: MutL.E32K from E. coli: dominant negative mismatch repair protein, SEQ ID NO: 515 (protein)
chain: MPIQVLPPQLANQIAAGEVVERPASVVKELVKNSLDAGATRIDIDIERGGAKLIRIRDNGCGIKKDELALALARHATSKIASLDDLEAIISLGFRGEALASISSVSRLTLTSRTAEQQEAWQAYAEGRDMNVTVKPAAHPVGTTLEVLDLFYNTPARRKFLRTEKTEFNHIDEIIRRIALARFDVTINLSHNGKIVRQYRAVPEGGQKERRLGAICGTAFLEQALAIEWQHGDLTLRGWVADPNHTTPALAEIQYCYVNGRMMRDRLINHAIRQACEDKLGADQQPAFVLYLEIDPHQVDVNVHPAKHEVRFHQSRLVHDFIYQGVLSVLQQQLETPLPLDDEPQPAPRSIPENRVAAGRNHFAEPAAREPVAPRYTPAPASGSRPAAPWPNAQPGYQKQQGEVYRQLLQTPAPMQKLKAPEPQEPALAANSQSFGRVLTIVHSDCALLERDGNISLLSLPVAERWLRQAQLTPGEAPVCAQPLLIPLRLKVSAEEKSALEKAQSALAELGIDFQSDAQHVTIRAVPLPLRQQNLQILIPELIGYLAKQSVFEPGNIAQWIARNLMSEHAQWSMAQAITLLADVERLCPQLVKTPPGGLLQSVDLHPAIKALKDE
B8: LlMutL.E33K: L. lactis MutL carrying the equivalent dominant negative mutation, SEQ ID NO: 513 (protein)
chain: MGKIIELNEALANQIAAGEVVERPASVVKELVKNSIDAGSSKIIINVEEAGLRLIEVIDNGLGLEKEDVALALRRHATSKIKDSADLFRIRTLGFRGEALPSIASVSQMTIETSNAQEEAGTKLIAKGGTIETLEPLAKRLGTKISVANLFYNTPARLKYIKSLQAELSHITDIINRLSLAHPEISFTLVNEGKEFLKTAGNGDLRQVIAAIYGIGTAKKMREINGSDLDFELTGYVSLPELTRANRNYITILINGRFIKNFLLNRAILEGYGNRLMVGRFPFAVLSIKIDPKLADVNVHPTKQEVRLSKERELMTLISKAIDETLSEGVLIPEALENLQGRAKEKGTVSVQTELPLQNNPLYYDNVRQDFFVREEAIFEINKNDNSDSLTEQNSTDYTVNQPETGSVSEKITDRTVESSNEFTDRTPKNSVSNFGVDFDNIEKLSQQSTFPQLEYLAQLHATYLLCQSKEGLYLVDQHAAQERIKYEYWKDKIGEVSMEQQILLAPYLFTLPKNDFIVLAEKKDLLHEAGVFLEEYGENQFILREHPIWLKETEIEKSINEMIDIILSSKEFSLKKYRHDLAAMVACKSSIKANHPLDAESARALLRELSTCKNPYSCAHGRPTIVHFSGDDIQKMFRRIQETHRSKAASWKDFE
B9: PF003: SSAP candidate (protein)
chain: MAENEKQALLQEENKSENVVSTVKRTALATNPFSDTDQFNNIFKMAQLISQSDMIPATYKGKPMNCVIALEQANRMGVSPLMVMQNLYVVKGVPSWSGQGCMMIIQGCGKFRDVDYVYSGEKGTDSRSCKVVATRISDGKRIEGTEITMQMVKSEGWISNTKWKNMPEQMLGYRAATFFARMYCPNELNGFATEGEAEDMNHKPQRIEAINVLGDTAHE
modifications: Clostridium sp FS41
notes: SSAP candidate
B10: SR033: SSAP candidate (protein)
chain: MADYEEQMLALQKPLQPDRVVWRVQQSGFSKQGKPWAMVLAYMDNRAVQERFDEVFGIAGWKNEFKTAPDGGTLCGISVKFGDEWVTKWDGAENTQVEAVKGGLSGSMKRAAVQWGVGRYLYDLPTSFAQTSLEKTDGWNKVFDKNSKKNFWWKNPQLPSWALPQNSKVQNTKADFTEEEIPNPPKLYVVGKDKKEFDEKKLQAVVNKMAIIAGKDYGASVDEQNDWLKMPLDEAYNDIEKFVDIKKEEQND
modifications: Lactococcus phage bIL286,Lactococcus lactis subsp lactis (strain IL1403) (Streptococcuslactis)
notes: SSAP candidate
B11: SR024: SSAP candidate (protein)
chain: MAIDNQSTKVITGKVRLSYTHVFEPQENDSGDMKYSTAILIPKSDKETLRKIKAAVDAAKELGKSKWGGKIPANCKTPLRDGDEERPDDEAYAGHYFLNASSKNKPGVAKPIGKDGNGKTKFQEITDSTEVYSGCYAKVSLNFYPFDAKGNRGVAAGLNNIVKVQDGDFLGGRSSVNDDFANEDFDDIVDISDDDDFLN
modifications: Paenibacillus lactis 154
notes: SSAP candidate
B12: SR041: SSAP candidate (protein)
chain: MAKIKLTNVRIAFINNLRTPAEFEAGDGKFRYSATFLVEKGSANDKAIEAAIKSVAVEGWAKKADAMLESFRSNSNKFCYQNGDLKDFDGFEGNMYIAAHRKRDDGRPLLLDNVADPETGKPARLVDANGEWLAGKEGRIYAGCYVNATIDIYAQTKTNPGIRCGLMGVQYHGPGDSFSGASRANEDDFEATAPETEDELD
modifications: Burkholderia phage BcepC6B
notes: SSAP candidate
B13: SR081: SSAP candidate (protein)
chain: MSKEFYARLAAIQENLNAPKNQYNSFGKYKYRSCEDILEGVKPLLNGLFLSISDEVVLIGDRYYVKATATITDGENSHTATALAREEESKKGMDSAQVTGATSSYARKYCLNGLFGIDDAKDADTDEHKHQQNAAAKQSNPSPTPEQVLKAFTDAAMQKNTVEELKQAFAKAWKMLEGTPEQHKAQDVYNIRRDELEGAAA
modifications: Bacteriophage HK022
notes: SSAP candidate

Key:
[1] = tested on: L. lactis; assay: Allelic recombination frequency, selective vs non-selective plates; format: cell-based, Lactococcus lactis; conditions: for Genome editing efficiency lower than Redβ with EcSSB: co-expressed with Redβ; for Editing efficiency with chimeric SSB: co-expressed with the RecT; for Function of dominant negative MutL: co-expressed with PapRecT and PaSSB
Description: Four variants known to enable high genome editing efficiency were selected (Redβ and PapRecT in E. coli, LrpRecT in L. lactis, and MspRecT in M. smegmatis), and tested codon optimized versions of all four in both E. coli (gram-negative), and L. lactis (gram-positive). Genome editing efficiency was measured by introducing oligos encoding known antibiotic resistance mutations, and compared the antibiotic resistant cell counts to the total number of viable cells in the population (FIGS. 17E-17F). […] In L. lactis, LrpRecT was the only functional homolog, and improved oligo incorporation 7,700-fold, while the three other RecT variants were nearly non-functional, improving oligo incorporation less than 7-fold (FIG. 17H). No RecT protein functioned well both in E. coli and L. lactis.
A single colony of L. lactis was grown overnight to saturation. 500 μL of dense culture was inoculated into 5 mL of fresh media, supplemented with 500 mM sucrose and 2.5% (w/v) glycine, and grown for 3 hours. To induce gene expression of the pJP005 vector for recombineering experiments, the cells were grown for an additional 30 min after adding 1 ng/mL freshly diluted nisin, unless stated otherwise. For the optimized condition (FIG. 20B), 10 ng/mL nisin was used. Cells were pelleted at 4° C. by centrifugation at 5,000×g for 5 minutes and washed twice with 2 mL of ice-cold electroporation buffer (500 mM sucrose containing 10% (w/v) glycerol) by centrifugation at 13,200×g for 2.5 minutes. Cells were resuspended in 80 μL ice-cold electroporation buffer containing DNA and transferred to a pre-chilled 0.1 cm electroporation cuvette.
Electrocompetent cells were electroporated with 90-mer oligos at: 1 uM for E. coli, 50 μg for L. lactis, and 10 uM for C. crescentus. 70-mer oligos were used at 1 μg for M. smegmatis. All oligos were obtained from IDT and can be found under “Oligonucleotides for genome editing” in materials and methods. For dsDNA experiments L. lactis was electroporated with 1.5 μg purified linear dsDNA. Cells were electroporated using a Bio-Rad gene pulser set to 25 μF, 200 S2, and 1.8 kV for E. coli, 2.0 kV for L. lactis, and 1.5 kV for C. crescentus and to 1000Ω and 2.5 kV for M. smegmatis. Immediately after electroporation, cells were recovered in fresh media for 3 hours for E. coli, 1 hour for L. lactis, overnight for M. smegmatis and overnight for C. crescentus. L. lactis recovery media was supplemented with MgCl2 and CaCl2) at a concentration of 20 mM and 2 mM, respectively. E. coli recovery media was supplemented with carbenicillin. M. smegmatis recovery media was supplemented with hygromycin. C. crescentus recovery media was supplemented with 0.3% xylose and kanamycin. After recovery, the cells were serial diluted and plated on non-selective vs. selective agar plates to obtain approximately 50-500 CFU/plate. Colonies were counted using a custom script in Fiji, and allelic recombination frequency was calculated by dividing the number of colonies on selective plates, with the number of colonies on non-selective plates.

[2] = tested on: Staphylococcus aureus; assay: SSAP candidate enrichment; format: cell-based
Description: The editing efficiency of SSAP candidates was also tested in Agrobacterium tumefaciens and in Staphylococcus aureus using the methods described above.

Row | Molecule | Editing efficiency with chimeric SSB [1] | Editing efficiency (enrichment) relative to other SSAP candidates [2] | other results
1 | B1 |  |  | Genome editing efficiency lower than Redβ with EcSSB [1]: ≤ 5.9 fold
2 | B2 |  |  | Genome editing efficiency lower than Redβ with EcSSB [1]: ≤ 2.6 fold
3 | B3 | completely recovered |  | 
4 | B4 | completely recovered |  | 
5 | B5 | completely recovered |  | 
6 | B6 | completely recovered |  | 
7 | B7 |  |  | Function of dominant negative MutL [1]: nonfunctional
8 | B8 |  |  | Function of dominant negative MutL [1]: enabled the efficient introduction of 1 bp pair changes
9 | B9 |  | increase in editing efficiency | 
10 | B10 |  | increase in editing efficiency | 
11 | B11 |  | increase in editing efficiency | 
12 | B12 |  | increase in editing efficiency | 
13 | B13 |  | increase in editing efficiency | 
